Measurements from patent publication US20100260748A1 (published 2010).

T1: human FcRH5 expressed on stably transfected cells (BJAB.huFcRH5, OPM2.huFcRH5) (human, UniProt Q96RD9 16-977)
T1 construct: also called OPM2-FcRH5; BJAB-FcRH5
T1 chain: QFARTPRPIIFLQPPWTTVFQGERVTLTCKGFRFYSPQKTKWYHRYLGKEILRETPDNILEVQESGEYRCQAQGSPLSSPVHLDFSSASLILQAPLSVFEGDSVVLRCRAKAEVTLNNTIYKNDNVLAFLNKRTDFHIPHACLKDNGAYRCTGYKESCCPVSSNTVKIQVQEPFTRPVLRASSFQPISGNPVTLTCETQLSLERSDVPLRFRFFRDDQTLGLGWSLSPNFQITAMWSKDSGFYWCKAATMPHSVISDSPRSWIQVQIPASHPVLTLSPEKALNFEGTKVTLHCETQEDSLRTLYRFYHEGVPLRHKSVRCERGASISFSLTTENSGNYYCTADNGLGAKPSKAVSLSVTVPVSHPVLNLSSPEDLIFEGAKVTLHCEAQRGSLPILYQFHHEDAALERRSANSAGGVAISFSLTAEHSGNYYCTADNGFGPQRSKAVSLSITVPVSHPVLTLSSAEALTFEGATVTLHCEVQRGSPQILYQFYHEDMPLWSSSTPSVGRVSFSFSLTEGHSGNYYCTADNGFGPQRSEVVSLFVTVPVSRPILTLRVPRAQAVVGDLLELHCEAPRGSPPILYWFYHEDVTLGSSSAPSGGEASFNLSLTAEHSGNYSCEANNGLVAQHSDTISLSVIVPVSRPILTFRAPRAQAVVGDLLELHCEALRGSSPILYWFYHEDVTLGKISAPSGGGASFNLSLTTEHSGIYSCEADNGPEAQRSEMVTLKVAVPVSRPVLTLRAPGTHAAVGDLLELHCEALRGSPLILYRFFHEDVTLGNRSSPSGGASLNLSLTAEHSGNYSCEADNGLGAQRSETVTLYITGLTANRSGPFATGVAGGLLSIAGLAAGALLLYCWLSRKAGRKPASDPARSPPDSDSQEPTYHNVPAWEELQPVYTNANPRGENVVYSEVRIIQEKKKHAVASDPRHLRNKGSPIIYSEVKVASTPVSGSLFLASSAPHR

T2: cynomolgus FcRH5 expressed on stably transfected SVT2 cells (cynomolgus monkey)
T2 construct: also called cyno FcRH5; cynoFcRH5
T2 chain: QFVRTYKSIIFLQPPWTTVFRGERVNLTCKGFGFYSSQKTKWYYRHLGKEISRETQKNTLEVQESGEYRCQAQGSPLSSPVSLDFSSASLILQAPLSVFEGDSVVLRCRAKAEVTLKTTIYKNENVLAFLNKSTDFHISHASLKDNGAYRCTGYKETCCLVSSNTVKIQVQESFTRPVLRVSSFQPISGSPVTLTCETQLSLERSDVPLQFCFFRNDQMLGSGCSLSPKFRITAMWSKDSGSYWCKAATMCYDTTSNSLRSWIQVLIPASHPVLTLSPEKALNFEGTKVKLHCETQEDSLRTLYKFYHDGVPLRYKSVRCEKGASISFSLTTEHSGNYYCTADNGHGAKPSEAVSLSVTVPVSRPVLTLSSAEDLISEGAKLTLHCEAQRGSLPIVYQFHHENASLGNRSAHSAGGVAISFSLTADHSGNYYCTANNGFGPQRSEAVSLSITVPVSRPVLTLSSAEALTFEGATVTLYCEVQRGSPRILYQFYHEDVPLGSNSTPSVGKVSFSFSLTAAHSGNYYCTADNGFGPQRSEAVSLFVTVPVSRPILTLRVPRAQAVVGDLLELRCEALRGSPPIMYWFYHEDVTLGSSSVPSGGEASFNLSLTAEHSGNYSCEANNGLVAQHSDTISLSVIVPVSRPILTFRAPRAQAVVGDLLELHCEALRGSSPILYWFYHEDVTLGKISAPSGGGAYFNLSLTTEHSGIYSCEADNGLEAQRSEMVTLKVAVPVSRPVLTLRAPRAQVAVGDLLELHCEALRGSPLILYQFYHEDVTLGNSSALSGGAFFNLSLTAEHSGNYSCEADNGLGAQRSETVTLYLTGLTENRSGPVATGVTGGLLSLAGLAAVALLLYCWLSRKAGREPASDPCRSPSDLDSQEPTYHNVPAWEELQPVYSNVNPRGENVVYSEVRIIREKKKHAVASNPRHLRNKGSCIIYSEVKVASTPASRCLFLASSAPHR


Legend:
[1] = target: T1, human FcRH5 expressed on stably …; test: FACS (0.1, 1.0, 10 ug/mL ADC) on OPM2 cells stably expressing human FcRH5
Protocol: For FACS analysis of FcRH5 antibody drug conjugates (see Example 2), FcRH5 ADCs were added in increasing concentrations (0.1, 1.0, and 10 μg/mL) to 10⁶ OPM2 cells transfected with and stably expressing human FcRH5 or SVT2 cells transfected with and stably expressing cynomolgus FcRH5 in a 100 μL reaction volume. Samples were then incubated 1 hr at […] in FACS buffer (PBS, 0.5% BSA, 0.1% sodium azide) to inhibit interalization. After washing, cells were resuspended in FACS buffer and incubated 30 min at room temperature with 20 μL mouse anti-human IgG conjugated to phycoerythrin (Ms anti-Human-PE) secondary antibody in a 100 μL reaction volume. After washing, cells were fixed in 200 μL 2% paraformaldehyde/PBS and flow cytometery performed. The same procedure was used for HuIgG, however, at only the highest concentration (10 μg/mL). The HuIgG was used as an isotype control to set baseline PMT per cell line. Flow cytomery was performed on a BD FACSCalibur® and geometric mean fluorescence intensity was recorded for each sample. Recorded data was analyzed using FlowJo v8.4.5 software (see FIGS. 20-25).

[2] = target: T2, cynomolgus FcRH5 expressed on stably …; test: Scatchard analysis, 0.5 nM 125I-labelled antibody competed with the same unlabelled antibody (50 to 0.02 nM), SVT2.cyFcRH5 cells, 4 h at 4 C
Protocol: (§1) To further determine binding of the FcRH5 murine antibodies and IgG clones, binding of iodinated IgG variants to OPM2 cells expressing human FcRH5 and SVT2 cells expressing cynomologous FcRH5, Scatchard analysis was performed.
(§2) For Scatchard analysis, 0.5 nM I¹²⁵ labeled murine or IgG clone anti-FcRH5 was competed against unlabeled murine or IgG clone anti-FcRH5, respectively, ranging from 50 to 0.02 nM (12 step 1:2 serial dilution) in the presence of a transfected OPM2 line stably expressing human-FcRH5 and a transfected SVT2 line stably expressing cynomologous-FcRH5. After a four hour incubation at 4° C., cells were washed and cell pellet counts were read by a gamma counter (1470 WIZARD Automatic Gamma Counter; Perkin Elmer, Walthem, Mass.). All points were done in triplicate and counted for 10 minutes. The average CPM was used for Kd calculation using the New Ligand (Genentech, South San Francisco, Calif.) program.

[3] = target: T1, human FcRH5 expressed on stably …; test: Scatchard analysis, 0.5 nM 125I-labelled antibody competed with the same unlabelled antibody (50 to 0.02 nM), OPM2.huFcRH5 cells, 4 h at 4 C
Protocol: as §1, §2

[4] = target: T1, human FcRH5 expressed on stably …; test: Scatchard analysis, 0.5 nM 125I-labelled antibody competed with the same unlabelled antibody (50 to 0.02 nM), BJAB.huFcRH5 cells, 4 h at 4 C

Binder	binding result [1]	Kd [2] [nM]	also measured
thio-hu10A8-HC(A118C)-MC-vc-PAB-MMAE (antibody, human IgG1, kappa, MC-vc-PAB-MMAE on the engineered Cys 118 (EU numbering), Antibody-drug conjugate (thioMab drug conjugate); also called thio-HC(A118C)-hu-anti-FcRH5 (10A8)-MC-vc-PAB-MMAE; Thio-HC(A118C)-hu-anti-FcRH5 (10A8)-vc-E) heavy: not shown light: DIQMTQSPSSLSASVGDRVTITCKASQDVSTAVAWYQQKPGKAPKLLIYSASYRYTGVPSRFSGSGSGTDFTLTISSLQPEDFATYYCQQHFSSPRTFGQGTKVEIKRTVAAPSVFIFPPSDEQLKSGTASVVCLLNNFYPREAKVQWKVDNALQSGNSQESVTEQDSKDSTYSLSSTLTLSKADYEKHKVYACEVTHQGLSSPVTKSFNRGEC	binds		
thio-hu10A8 v1-HC(A118C) (antibody, human IgG1, kappa, Cysteine engineered humanized IgG1 (thioMab), unconjugated; also called thio.hu10A8.HC; Thio-hu10A8-HC(A118C)) heavy: not shown light: DIQMTQSPSSLSASVGDRVTITCKASQDVSTAVAWYQQKPGKAPKLLIYSASYRYTGVPSRFSGSGSGTDFTLTISSLQPEDFATYYCQQHFSSPRTFGQGTKVEIKRTVAAPSVFIFPPSDEQLKSGTASVVCLLNNFYPREAKVQWKVDNALQSGNSQESVTEQDSKDSTYSLSSTLTLSKADYEKHKVYACEVTHQGLSSPVTKSFNRGEC		3.12	
thio-hu10A8 v1-LC(V205C) (antibody, human IgG1, kappa, Cysteine engineered humanized IgG1 (thioMab), unconjugated; also called thio.hu10A8.LC; thio-hu10A8-LC(V205C)) heavy: not shown light: DIQMTQSPSSLSASVGDRVTITCKASQDVSTAVAWYQQKPGKAPKLLIYSASYRYTGVPSRFSGSGSGTDFTLTISSLQPEDFATYYCQQHFSSPRTFGQGTKVEIKRTVAAPSVFIFPPSDEQLKSGTASVVCLLNNFYPREAKVQWKVDNALQSGNSQESVTEQDSKDSTYSLSSTLTLSKADYEKHKVYACEVTHQGLSSPCTKSFNRGEC		2.63	
thio-hu10A8-LC(V205C)-MC-vc-PAB-MMAE (antibody, human IgG1, kappa, MC-vc-PAB-MMAE on the engineered Cys 205 (Kabat numbering), Antibody-drug conjugate (thioMab drug conjugate); also called Thio-LC(L205C)-hu-anti-FcRH5 (10A8)-vc-E) heavy: not shown light: DIQMTQSPSSLSASVGDRVTITCKASQDVSTAVAWYQQKPGKAPKLLIYSASYRYTGVPSRFSGSGSGTDFTLTISSLQPEDFATYYCQQHFSSPRTFGQGTKVEIKRTVAAPSVFIFPPSDEQLKSGTASVVCLLNNFYPREAKVQWKVDNALQSGNSQESVTEQDSKDSTYSLSSTLTLSKADYEKHKVYACEVTHQGLSSPCTKSFNRGEC	binds		
humanized anti-FcRH5 antibody 10A8 version 1 (hu10A8 v1) (antibody, human IgG1, V domains shown, Full-length human IgG1 with human kappa constant domain; also called 10A8-graft; hu10A8 graft) VL: DIQMTQSPSSLSASVGDRVTITCKASQDVSTAVAWYQQKPGKAPKLLIYSASYRYTGVPSRFSGSGSGTDFTLTISSLQPEDFATYYCQQHFSSPRTFGQGTKVEIKR VH: EVQLVESGGGLVQPGGSLRLSCAASGFTFSSYAVSWVRQAPGKGLEWVATISSGGSLTFYLDSVRGRFTISRDNSKNTLYLQMNSLRAEDTAVYYCARPIPDYYALDYWGQGTLVTVSS		3.04	Kd [3]: 1.44 nM
murine anti-FcRH5 (10A8) monoclonal antibody (antibody, V domains shown, Murine hybridoma IgG; also called 10A8.1.1; mu10A8) VL: DIVMTQSHKFMSTSVRDRVSITCKASQDVSTAVAWYQQKPGQSPKLLIYSASYRYTGVPDRFTGSGSGTDFTFTISSVQAEDLAVYYCQQHFSSPRTFGGGTKVEIKR VH: EVQLVESGGGLVKPGGSLKISCAASGFTFSSYAVSWVRQTPEKRLEWVATISSGGSLTFYLDSVRGRFTISRDNAKNTLYLQMSSLRSEDTAMYYCARPIPDYYALDYWGQGTSVTVSS		2.74	Kd [4]: 0.44 nM
Thio-ch10A8-HC(A118C)-MC-vc-PAB-MMAE (antibody, human IgG1, kappa, name in EU numbering, MC-vc-PAB-MMAE on the engineered Cys 118 (EU numbering), Antibody-drug conjugate of thio-ch10A8.HC) light: DIVMTQSHKFMSTSVRDRVSITCKASQDVSTAVAWYQQKPGQSPKLLIYSASYRYTGVPDRFTGSGSGTDFTFTISSVQAEDLAVYYCQQHFSSPRTFGGGTKVEIKRTVAAPSVFIFPPSDEQLKSGTASVVCLLNNFYPREAKVQWKVDNALQSGNSQESVTEQDSKDSTYSLSSTLTLSKADYEKHKVYACEVTHQGLSSPVTKSFNRGEC heavy: not shown	binds		
cysteine engineered chimeric anti-FcRH5 10A8, heavy chain A118C (thio-ch10A8.HC) (antibody, human IgG1, kappa, name in EU numbering, also called Thio-ch10A8-HC(A118C)) light: DIVMTQSHKFMSTSVRDRVSITCKASQDVSTAVAWYQQKPGQSPKLLIYSASYRYTGVPDRFTGSGSGTDFTFTISSVQAEDLAVYYCQQHFSSPRTFGGGTKVEIKRTVAAPSVFIFPPSDEQLKSGTASVVCLLNNFYPREAKVQWKVDNALQSGNSQESVTEQDSKDSTYSLSSTLTLSKADYEKHKVYACEVTHQGLSSPVTKSFNRGEC heavy: not shown		1.57	Kd [3]: 0.85 nM
ch10A8-SPDB-DM4 (antibody, human IgG1, kappa, DM4 linked through the e-amino group of lysine using the SPDB linker (sites not given)) light: DIVMTQSHKFMSTSVRDRVSITCKASQDVSTAVAWYQQKPGQSPKLLIYSASYRYTGVPDRFTGSGSGTDFTFTISSVQAEDLAVYYCQQHFSSPRTFGGGTKVEIKRTVAAPSVFIFPPSDEQLKSGTASVVCLLNNFYPREAKVQWKVDNALQSGNSQESVTEQDSKDSTYSLSSTLTLSKADYEKHKVYACEVTHQGLSSPVTKSFNRGEC heavy: not shown	binds		
chimeric anti-human FcRH5 antibody 10A8 (ch10A8) (antibody, human IgG1, kappa, Murine 10A8 variable domains with human kappa and human IgG1 constant domains; also called chMAFcRH5 (10A8); chFcRH5 (10A8)) light: DIVMTQSHKFMSTSVRDRVSITCKASQDVSTAVAWYQQKPGQSPKLLIYSASYRYTGVPDRFTGSGSGTDFTFTISSVQAEDLAVYYCQQHFSSPRTFGGGTKVEIKRTVAAPSVFIFPPSDEQLKSGTASVVCLLNNFYPREAKVQWKVDNALQSGNSQESVTEQDSKDSTYSLSSTLTLSKADYEKHKVYACEVTHQGLSSPVTKSFNRGEC heavy: not shown		0.98	
